As usually defined, the EC50 is the concentration that produces a half-maximal response.

Substitutions are numbered along the chain they refer to.

Assay [1] has as its target T1, human CD39 (full length, on cells) (human, UniProt P49961 1-510).
T1 construct: Recombinant on CHOK1-hCD39 cells or natural on SK-MEL-28, SK-MEL-5 and MOLP-8 cells; the cell line is named under assay; also called hCD39; ENTPD1
T1 sequence: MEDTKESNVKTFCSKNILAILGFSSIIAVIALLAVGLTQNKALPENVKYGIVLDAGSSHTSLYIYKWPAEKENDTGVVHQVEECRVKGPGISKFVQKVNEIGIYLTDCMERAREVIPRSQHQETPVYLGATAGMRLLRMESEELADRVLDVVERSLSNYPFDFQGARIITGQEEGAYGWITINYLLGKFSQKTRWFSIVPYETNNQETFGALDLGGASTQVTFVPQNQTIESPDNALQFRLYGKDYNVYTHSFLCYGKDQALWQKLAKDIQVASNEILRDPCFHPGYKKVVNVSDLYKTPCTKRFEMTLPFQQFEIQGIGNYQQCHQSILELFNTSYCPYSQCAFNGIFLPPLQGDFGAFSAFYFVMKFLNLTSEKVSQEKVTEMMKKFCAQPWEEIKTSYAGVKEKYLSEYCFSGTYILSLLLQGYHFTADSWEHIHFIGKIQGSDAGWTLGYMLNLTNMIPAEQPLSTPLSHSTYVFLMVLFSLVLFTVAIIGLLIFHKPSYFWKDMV
In words: FACS, CHOK1-hCD39 cells. An excerpt:
(§1) FACS were used to determine binding of the antibodies to cell lines expressing CD39 naturally (SK-MEL-28) or recombinantly (CHOK1-hCD39, CHOK1-cynoCD39, and CHOK1-mCD39), or with cells lacking CD39 expression (CHOK1-blank) as a negative control.
(§2) CHOK1-hCD39, CHOK1-cCD39, CHOK1-mCD39 and CHOK1-blank cells were maintained in culture medium according to ATCC procedure. Cells were collected and re-suspended in blocking buffer at a density of 3×10⁶ cells/ml. Cells were transferred to 96 well FACS plates at 100 μl/well (3×10⁵ cells/well), the plates were centrifuged and washed twice with FACS buffer (PBS, 1% FBS, 0.05% Tween-20). 4-folds serial dilution of anti-CD39 antibodies were prepared in FACS buffer starting from 30 μg/ml. Reference antibody 9-8B and mouse/human control IgG were used as positive and negative controls, respectively. Cells were re-suspended in 100 μL/well diluted antibodies, and the plates were incubated at 4° C. for 60 min. […] The plates were washed with FACS buffer, and cells were re-suspended in 100 μL/well of PBS. Cells were then analyzed with FACSVerse™ and mean fluorescence intensity were determined. Full binding curves were generated on the CD39 expressing cells by testing a range of antibody concentrations. Apparent affinity was determined for each antibody using Prism software.
Background: Flow cytometry measures light scatter and fluorescence of single cells or particles in a stream.

In assay [2] the target is T2, cynomolgus CD39 (full length, on CHOK1-cynoCD39 cells) (cynomolgus monkey, UniProt A0A7N9DGH8 1-510).
T2 construct: whole, on cells; also called cCD39
T2 sequence: T1 sequence with V47I, F94Y, V221I, I230T, I329V, K368N, A391S, F489V, T490I
In words: FACS, CHOK1-cynoCD39 cells.
Source text: as §1, §2

In assay [3] the target is T1, human CD39 (full length, on cells). In words: FACS, SK-MEL-28 cells. The method, then: as §1
Similarly, human CD39 expressing cells SK-MEL-5, SK-MEL-28 or MOLP-8, were incubated with a gradient concentration of anti-CD39 antibodies for 30 minutes at 4° C. Cells were washed 3 times using FACS buffer and next incubated with fluorescence labelled secondary antibody (goat-anti-mouse IgG or goat anti-human IgG) for 30 minutes at 4° C. Cells were washed 3 times and then re-suspended in FACS buffer and analyzed by flow cytometry analysis on BD Celesta. Data plotted and analyzed using GraphPad Prism 8.02.

Assay [4] shares this target. In words: FACS competition on CHOK1-hCD39; competitor mAb23-Alexa488. On the procedure: (§3) Anti-CD39 antibodies were labeled using Alex488 labeling kit and were diluted in a series of concentrations, before mixing with CHOK1-hCD39 cells to test binding EC₅₀using FACS. The non-labeled antibodies were tested for their blocking efficacy to the labelled ones. Briefly, mononuclear CHOK1-hCD39 cells were prepared to 2×10⁶/ml and plated into 96 well at 50 μl/well, then mixed with antibodies gradients to final volume at 100 μl, and then equal volume of Alex488 label antibodies were added at two folds EC80 concentration. 96 well plates were incubated at 4° C. for 1 hour, and spun down and washed 3 times with 200 μl FACS buffer. The FACS analysis was performed on FACScelesta machine and data was analyzed by Flowjo software. The blocking percentages were calculated and those having above 80% competition rate were allocated into one epitope group, compared with the non-competing well (Alex488 labeled antibody only).
(§4) Based on the competition results, the 4 anti-CD39 hybridoma antibodies (mAb14, mAb19, mAb21, mAb23) can be grouped into 4 different epitope groups, as shown in Table 11.

Assay [5] has the same target. In words: FACS competition on CHOK1-hCD39; competitor 9-8B-Alexa488. On the procedure: as §3, §4
The target is the same in assay [6]. In words: FACS competition on CHOK1-hCD39; competitor mAb21-Alexa488. On the procedure:
as §3, §4

Assay [7] has the same target. In words: FACS competition on CHOK1-hCD39; competitor mAb14-Alexa488. The method, then: as §3, §4
The target is the same in assay [8]. In words: cell-based or functional assay.
For assay [9] the target is unchanged. In words: FACS competition on CHOK1-hCD39; competitor mAb19-Alexa488. On the procedure: as §3, §4
The target of assay [10] is T3, mouse CD39 (full length, on CHOK1-mCD39 cells) (mouse, UniProt P55772 1-510).
T3 construct: whole, on cells
T3 sequence (looked up): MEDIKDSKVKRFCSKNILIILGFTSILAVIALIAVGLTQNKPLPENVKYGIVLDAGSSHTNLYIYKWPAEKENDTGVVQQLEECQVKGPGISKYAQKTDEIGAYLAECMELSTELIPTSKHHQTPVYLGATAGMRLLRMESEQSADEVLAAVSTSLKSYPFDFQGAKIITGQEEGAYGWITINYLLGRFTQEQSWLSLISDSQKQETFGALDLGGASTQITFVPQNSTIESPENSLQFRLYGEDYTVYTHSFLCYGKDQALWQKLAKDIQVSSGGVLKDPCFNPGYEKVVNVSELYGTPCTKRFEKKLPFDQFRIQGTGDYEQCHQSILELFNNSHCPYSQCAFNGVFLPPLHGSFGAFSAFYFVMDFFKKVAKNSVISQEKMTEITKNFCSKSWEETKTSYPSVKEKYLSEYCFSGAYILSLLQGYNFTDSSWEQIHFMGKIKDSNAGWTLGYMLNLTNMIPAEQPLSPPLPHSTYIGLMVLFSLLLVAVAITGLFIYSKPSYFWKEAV
In words: FACS, CHOK1-mCD39 cells.
Source text: as §1, §2

B1: mAb23 (antibody, V domains shown)
VH: EVQLQQSGAELLRPGASVKLSCTASGYNLKDTFLHWVKQRPEQGLEWIGRIDPANGNIKYDPKFQGKATLTADTSSNTAYLQLISLTSEDTAVYYCANSPYYYGSGYRIFDVWGAGTTVTVSS
VL: QIVLTQSPAIMSASPGEKVTITCSAFSSVNYMHWYQQKPGTSPKLLIYTTSNLASGVPTRFSGSGSGTSYSLTISRMEAEDAATYYCQQRSTYPFTFGSGTKLEIQ
notes: mouse hybridoma antibody
In the case of B1, the concentration giving a half-maximal response (EC50) in [1] is 1.7 nM; in assay [2], 2.3 nM; in assay [3], 1.6 nM. In addition, the blocking percentage turned out to be 100% in assay [4]; 98% in [5]; 93% in [6]; 86% in [7]; 98% in assay [9]. The “SK-MEL-28 cell based ATPase inhibition % at 10 nM” value in assay [8] is 75%. The binding result in assay [10] is given as “no binding (tested: 30 µg/ml highest concentration)”.

B2: mAb21 (antibody, V domains shown)
VH: EVKLEKSGGGLVQPGGSMKLSCVASGFTFSNYWMNWVRQSPEKGLEWVAQIRLNPDNYATHFAESVKGRFTISRDDSKNSVYLQMNSLRAEDTGIYYCTEHGTRGFAYWGQGTLVTVSE
VL: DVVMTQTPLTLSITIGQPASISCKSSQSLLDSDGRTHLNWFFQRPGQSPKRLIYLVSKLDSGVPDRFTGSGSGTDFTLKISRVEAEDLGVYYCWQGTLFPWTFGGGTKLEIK
notes: mouse hybridoma antibody
Consider B2, for which the EC50 in assay [1] is 6.7 nM; in assay [2], 11 nM; in [3], 90 nM. Besides, the blocking percentage in [4] was 97%; in [5] it was 20%; in assay [6], 90%; in assay [7], 24%; in assay [9], 98%. In addition, the “SK-MEL-28 cell based ATPase inhibition % at 10 nM” value in assay [8] was 70%. The binding result in [10] is on record as “no binding (tested: 30 µg/ml highest concentration)”.

B3: mAb19 (antibody, V domains shown)
VH: EVKLEKSGGGLVQPGGSMKLSCVASGFTFSNYWMNWVRQSPEKGLEWVAQIRLNPDNYATHYAESVKGRFTISRDDYKNSVYLQMSSLRAEDSGIYYCTQHGSRGFAYWGQGTLVTVS
VL: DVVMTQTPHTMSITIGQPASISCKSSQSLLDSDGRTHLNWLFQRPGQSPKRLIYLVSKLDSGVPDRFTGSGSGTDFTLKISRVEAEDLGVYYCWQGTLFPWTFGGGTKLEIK
notes: mouse hybridoma antibody
For the molecule B3, the concentration giving a half-maximal response (EC50) in [1] worked out at 4.5 nM; in assay [2], 5.8 nM; in assay [3], 46 nM. The blocking percentage in [4] was found to be 91%; in [5], 6%; in assay [6], 83%; in [7], 23%; in assay [9], 96%. In assay [8], the “SK-MEL-28 cell based ATPase inhibition % at 10 nM” value came out at 65%. In addition, the binding result in assay [10] was “no binding (tested: 30 µg/ml highest concentration)”.

Values taken from patent US20210388105A1 (ELPISCIENCE SUZHOU BIOPHARMA, published 2021).
